Where a chain is given by its changes, count along the chain named.
Assays:
Test in all cases: pull-down; 0.3–20 µg of His-14-3-3κ incubated with MBP or MBP-PIFs in MBP column buffer at 4 °C in dark for 5–6 h, then amylose resin overnight; elution with 10 mM maltose; blot with anti-His and anti-MBP
Details in all cases: both partners purified
MBP-PIF1 = molecular target: T1, MBP-PIF1 (Arabidopsis thaliana, UniProt Q8GZM7 1-478)
T1 construct: Transcription factor PIF1, Arabidopsis thaliana; source: E. coli BL21 (DE3), purified (amylose resin)
T1 sequence (looked up): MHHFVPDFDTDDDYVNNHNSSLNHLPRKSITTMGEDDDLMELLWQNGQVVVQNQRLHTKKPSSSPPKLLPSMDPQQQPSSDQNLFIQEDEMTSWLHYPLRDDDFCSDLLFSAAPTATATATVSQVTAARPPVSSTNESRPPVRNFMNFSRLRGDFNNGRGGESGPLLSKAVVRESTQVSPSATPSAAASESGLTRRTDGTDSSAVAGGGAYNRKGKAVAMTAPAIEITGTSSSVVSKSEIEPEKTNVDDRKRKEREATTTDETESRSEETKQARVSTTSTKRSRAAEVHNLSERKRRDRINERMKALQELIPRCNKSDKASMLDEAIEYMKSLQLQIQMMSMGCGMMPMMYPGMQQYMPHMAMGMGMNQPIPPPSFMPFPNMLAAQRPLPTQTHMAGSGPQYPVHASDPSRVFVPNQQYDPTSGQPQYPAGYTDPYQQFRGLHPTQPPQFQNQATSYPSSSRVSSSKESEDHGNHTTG

[1] = molecular target: T2, MBP-PIF3ala1+2 (PIF3 S23A S115A S116A) (Arabidopsis thaliana, UniProt O80536 1-524, S23A | S115A | S116A)
T2 construct: Transcription factor PIF3, Arabidopsis thaliana, AGI AT1G09530; ala1: Ser-23 to Ala; ala2: Ser-115 and Ser-116 to Ala; The cloning of the mutant into pMAL is not described on its own; source: E. coli BL21 (DE3), purified (amylose resin)
T2 sequence (looked up): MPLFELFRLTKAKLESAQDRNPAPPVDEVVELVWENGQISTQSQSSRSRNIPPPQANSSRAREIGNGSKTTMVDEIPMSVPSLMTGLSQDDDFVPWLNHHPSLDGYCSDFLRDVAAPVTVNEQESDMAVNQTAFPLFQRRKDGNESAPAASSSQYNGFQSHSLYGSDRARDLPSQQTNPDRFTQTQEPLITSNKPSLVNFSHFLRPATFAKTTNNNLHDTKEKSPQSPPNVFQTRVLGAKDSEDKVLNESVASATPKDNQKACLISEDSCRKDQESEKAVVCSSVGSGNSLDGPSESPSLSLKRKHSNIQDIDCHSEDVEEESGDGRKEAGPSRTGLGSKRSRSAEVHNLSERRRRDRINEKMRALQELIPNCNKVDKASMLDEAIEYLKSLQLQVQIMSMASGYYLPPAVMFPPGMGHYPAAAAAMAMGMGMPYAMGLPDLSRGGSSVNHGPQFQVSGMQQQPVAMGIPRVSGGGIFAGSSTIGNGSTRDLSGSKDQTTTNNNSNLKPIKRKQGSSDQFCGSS

[2] = molecular target: T3, maltose-binding protein (MBP)-tagged PIF3 (Arabidopsis thaliana, UniProt O80536 1-524)
T3 construct: Transcription factor PIF3, Arabidopsis thaliana, AGI AT1G09530; also called MBP-PIF3; source: E. coli BL21 (DE3), purified (amylose resin)
T3 sequence (looked up): T2 sequence (looked up) with A23S, A115S, A116S

Measured: binding result

B1: His-tagged 14-3-3κ (natural protein, Arabidopsis thaliana, UniProt P48348 1-248, looked up)
chain: MATTLSRDQYVYMAKLAEQAERYEEMVQFMEQLVSGATPAGELTVEERNLLSVAYKNVIGSLRAAWRIVSSIEQKEESRKNEEHVSLVKDYRSKVETELSSICSGILRLLDSHLIPSATASESKVFYLKMKGDYHRYLAEFKSGDERKTAAEDTMIAYKAAQDVAVADLAPTHPIRLGLALNFSVFYYEILNSSEKACSMAKQAFEEAIAELDTLGEESYKDSTLIMQLLRDNLTLWTSDMQEQMDEA
notes: 14-3-3 kappa isoform, Arabidopsis thaliana; also called HIS-14-3-3κ; His-14-3-3κ
binds: all assays above

From PMC4284738, “14-3-3 Proteins Participate in Light Signaling through Association with PHYTOCHROME INTERACTING FACTORs” (International Journal of Molecular Sciences, 2014)
